In patent US20200188541A1:

Legend:
[1] = biological target: HER2 extracellular domain (coated on magnetic beads) (UniProt P04626); assay: Lindmo method, magnetic beads coated with HER2 extracellular domain (BSA beads as negative control), paired-label
[2] = biological target: Human epidermal growth factor receptor 2 (HER2) on BT474M1 human breast carcinoma cells (human) (UniProt P04626); assay: saturation binding of radiolabeled VHH on BT474M1 cells at 4 C, non-specific binding with 100-fold excess trastuzumab

Substance | immunoreactive fraction [1] [%] | Kd [2] [nM]
[^131I]SGMIB-5F7 VHH | 84.5 | –
[^211At]SAGMB-5F7 VHH | 83.5 | 4.5
iso-[^131I]SGMIB-5F7 VHH | 81.8 | –
iso-[^211At]SAGMB-5F7 VHH | 81.3 | –
